Legend:
[1] = target: T1, full-length mouse TF with a C-terminal FLAG tag on Flp-In-CHO cells (mouse, UniProt P20352 29-294); assay: flow cytometry, antibody titration on CHO cells expressing mouse TF
T1 construct: also called CHO-mTF; mouse TF-positive CHO cells

Relipidated TF [2] = target: T2, Relipidated TF (UniProt P13726 33-295, limits assumed); assay: cell-based or functional assay
[3] = target: T3, human Tissue Factor on human TF-positive cells (human, UniProt P13726 33-295); assay: competition flow cytometry on MDA-MB-231 cells: unlabeled antibody titration first, then 20 nM 39A-Alexa488 as the competitor
T3 construct: also called hTF; CD142

[4] = target: T4, rTF (rat TF) construct on HEK293 cells (rat, UniProt P42533 29-252); assay: live cell staining, HEK293 cells
T4 construct: not shown: transmembrane/cytoplasmic anchor of the cell-surface construct
T4 sequence (P42533 29-252 limits assumed): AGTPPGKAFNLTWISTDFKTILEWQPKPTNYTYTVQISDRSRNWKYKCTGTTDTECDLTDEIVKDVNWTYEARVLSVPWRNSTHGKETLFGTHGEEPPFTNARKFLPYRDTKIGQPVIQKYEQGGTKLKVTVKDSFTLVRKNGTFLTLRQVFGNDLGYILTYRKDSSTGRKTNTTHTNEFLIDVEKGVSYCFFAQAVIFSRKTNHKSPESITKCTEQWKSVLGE

human TF ECD-His6 [5] = target: T5, human TF ECD-His6 (human, UniProt P13726 33-251); assay: SPR (Biacore), TF-His over coupled antibody
T5 construct: Expi293-derived; Biacore used TF-His; also called TF-His; hTF

[6] = target: T6, cynomolgus monkey TF ECD-His6 (cynomolgus monkey (Macaca fascicularis)); assay: SPR (Biacore), TF-His over coupled antibody
T6 construct: Expi293-derived; also called TF-His; cTF
T6 chain: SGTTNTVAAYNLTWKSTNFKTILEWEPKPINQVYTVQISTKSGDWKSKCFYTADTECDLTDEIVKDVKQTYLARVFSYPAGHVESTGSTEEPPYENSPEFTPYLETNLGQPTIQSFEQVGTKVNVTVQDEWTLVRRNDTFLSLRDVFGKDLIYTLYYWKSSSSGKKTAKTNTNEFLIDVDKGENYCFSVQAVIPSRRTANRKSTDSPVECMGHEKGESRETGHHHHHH

[7] = target: T3, human Tissue Factor on human …; assay: flow cytometry, antibody titration on HCT-116 cells (endogenous human TF), 4-parameter fit of MFI
[8] = target: T3, human Tissue Factor on human …; assay: flow cytometry, antibody titration on A431 cells (human TF), 4-parameter fit of MFI
[9] = target: T1, full-length mouse TF with a C-terminal …; assay: flow cytometry on CHO cells expressing mouse TF, MFI at 250 nM antibody
Relipidated TF [10] = target: T2, Relipidated TF; assay: cell-based or functional assay; remark: listed apart in the source
[11] = target: T3, human Tissue Factor on human …; assay: competition flow cytometry on MDA-MB-231 cells: antibody titration first, then 20 nM FVII-Fc-Alexa488 as the blocked ligand
human TF ECD-His6 [12] = target: T5, human TF ECD-His6; assay: BLI (ForteBio Octet)
[13] = target: T6, cynomolgus monkey TF ECD-His6; assay: BLI (ForteBio Octet)

T1 sequence (P20352 29-294): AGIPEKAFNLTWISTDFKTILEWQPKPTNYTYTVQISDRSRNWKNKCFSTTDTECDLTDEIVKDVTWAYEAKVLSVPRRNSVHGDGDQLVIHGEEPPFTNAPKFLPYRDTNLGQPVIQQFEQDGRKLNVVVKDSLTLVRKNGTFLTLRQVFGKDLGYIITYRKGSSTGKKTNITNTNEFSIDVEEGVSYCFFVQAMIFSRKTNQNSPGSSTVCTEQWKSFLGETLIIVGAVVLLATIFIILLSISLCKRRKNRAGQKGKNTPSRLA

B1: 1F (antibody, human IgG1, V domains shown)
VH: EVQLLESGGGLVQPGGSLRLSCAASGFTFSDYAMGWVRQAPGKGLEWVSTISGSGGLTYYADSVKGRFTISRDNSKNTLYLQMNSLRAEDTAVYYCAKAPYGYYMDVWGKGTTVTVSS
VL: not shown
notes: Human IgG1; also called antibody designated 1F
- binding result [1]: no binding (tested: 250 nM)
- % ETP at 10 nM Ab (TGA with 10 min antibody pre-incubation) (Relipidated TF [2]): 31%
- % Peak IIa at 10 nM Ab (TGA with 10 min antibody pre-incubation) (Relipidated TF [2]): 10%
- % Peak IIa at 50 nM Ab (TGA with 10 min antibody pre-incubation) (Relipidated TF [2]): 7%
- % Peak IIa at 100 nM Ab (TGA with 10 min antibody pre-incubation) (Relipidated TF [2]): 7%
- ETP at 10 nM Ab (TGA with 10 min antibody pre-incubation) (Relipidated TF [2]): 540 nM·min
- Lag Time at 10 nM Ab (TGA with 10 min antibody pre-incubation) (Relipidated TF [2]): 18.8 min
- Lag Time at 50 nM Ab (TGA with 10 min antibody pre-incubation) (Relipidated TF [2]): 27.6 min
- Lag Time at 100 nM Ab (TGA with 10 min antibody pre-incubation) (Relipidated TF [2]): 30.3 min
- Peak IIa at 10 nM Ab (TGA with 10 min antibody pre-incubation) (Relipidated TF [2]): 27 nM
- Peak IIa at 50 nM Ab (TGA with 10 min antibody pre-incubation) (Relipidated TF [2]): 20 nM
- Peak IIa at 100 nM Ab (TGA with 10 min antibody pre-incubation) (Relipidated TF [2]): 17 nM
- ttPeak at 10 nM Ab (TGA with 10 min antibody pre-incubation) (Relipidated TF [2]): 28.6 min
- ttPeak at 50 nM Ab (TGA with 10 min antibody pre-incubation) (Relipidated TF [2]): 38.9 min
- ttPeak at 100 nM Ab (TGA with 10 min antibody pre-incubation) (Relipidated TF [2]): 42 min
- IC50 [3]: 0.65 nM
- binding result [4]: no binding
- Kd (human TF ECD-His6 [5]): 0.31 nM
- Kd [6]: 0.26 nM
- EC50 [7]: 0.05 nM
- EC50 [8]: 0.49 nM
- MFI at 250 nM [9]: 4200
- % ETP at 10 nM Ab (TGA without antibody pre-incubation) (Relipidated TF [10]): 58%
- % Peak IIa at 10 nM Ab (TGA without antibody pre-incubation) (Relipidated TF [10]): 21%
- % Peak IIa at 50 nM Ab (TGA without antibody pre-incubation) (Relipidated TF [10]): 8%
- % Peak IIa at 100 nM Ab (TGA without antibody pre-incubation) (Relipidated TF [10]): 7%
- ETP at 10 nM Ab (TGA without antibody pre-incubation) (Relipidated TF [10]): 1400 nM·min
- Lag Time at 10 nM Ab (TGA without antibody pre-incubation) (Relipidated TF [10]): 12.1 min
- Lag Time at 50 nM Ab (TGA without antibody pre-incubation) (Relipidated TF [10]): 27.2 min
- Lag Time at 100 nM Ab (TGA without antibody pre-incubation) (Relipidated TF [10]): 25.9 min
- Peak IIa at 10 nM Ab (TGA without antibody pre-incubation) (Relipidated TF [10]): 83 nM
- Peak IIa at 50 nM Ab (TGA without antibody pre-incubation) (Relipidated TF [10]): 32 nM
- Peak IIa at 100 nM Ab (TGA without antibody pre-incubation) (Relipidated TF [10]): 29 nM
- ttPeak at 10 nM Ab (TGA without antibody pre-incubation) (Relipidated TF [10]): 19.8 min
- ttPeak at 50 nM Ab (TGA without antibody pre-incubation) (Relipidated TF [10]): 36.8 min
- ttPeak at 100 nM Ab (TGA without antibody pre-incubation) (Relipidated TF [10]): 37.9 min
- IC50 (read off the curve) [11]: ~1 nM
- Kd (human TF ECD-His6 [12]): 1.28 nM
- Kd [13]: 1.43 nM
